Paper PMC10781750, “Structural basis of antiphage immunity generated by a prokaryotic Argonaute-associated SPARSA system” (Nature Communications, 2024)

Target: T1, GsSir2 (Sir2-APAZ protein of the SPARSA system from Geobacter sulfurreducens) (Geobacter sulfurreducens, UniProt Q74DF6 1-586)
T1 construct: GsSir2 of Geobacter sulfurreducens, NP_952413.1; That the His tag sits on GsSir2, the first gene of Sir2-RBS-pAgo, is surmised; source: E. coli BL21(DE3), coexpressed with pAgo, purified (Ni-NTA, Superdex 200 SEC)
T1 sequence: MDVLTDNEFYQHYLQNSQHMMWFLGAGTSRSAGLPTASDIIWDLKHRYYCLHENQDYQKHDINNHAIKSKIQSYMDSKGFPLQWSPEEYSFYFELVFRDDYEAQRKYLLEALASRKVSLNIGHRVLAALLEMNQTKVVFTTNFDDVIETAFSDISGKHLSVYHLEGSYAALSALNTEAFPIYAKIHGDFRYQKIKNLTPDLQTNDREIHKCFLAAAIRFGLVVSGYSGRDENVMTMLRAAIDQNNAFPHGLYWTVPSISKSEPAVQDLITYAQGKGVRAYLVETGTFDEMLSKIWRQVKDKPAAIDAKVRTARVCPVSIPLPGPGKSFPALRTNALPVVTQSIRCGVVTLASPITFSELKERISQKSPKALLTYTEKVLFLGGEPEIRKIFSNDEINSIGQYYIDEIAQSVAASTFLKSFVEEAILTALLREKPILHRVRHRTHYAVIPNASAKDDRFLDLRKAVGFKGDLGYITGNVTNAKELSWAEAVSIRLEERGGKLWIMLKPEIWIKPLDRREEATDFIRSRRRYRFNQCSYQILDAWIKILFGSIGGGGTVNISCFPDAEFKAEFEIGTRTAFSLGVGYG
Assay: cryo-EM structure; SPARSA heterodimer (GsSir2 + pAgo) coexpressed and co-purified, endogenous NAD+ bound, no nucleic acids; 2 mg/mL; 3.6 Å
Settings: both partners purified

stoichiometry N: 1
B1: pAgo (short prokaryotic Argonaute of the SPARSA system from Geobacter sulfurreducens) (natural protein)
chain: not shown
notes: short pAgo of Geobacter sulfurreducens, NP_952414.1; MID domain residues 1-218, PIWI domain residues 219-473; no tag of its own is described; also called short pAgo; source: E. coli BL21(DE3), coexpressed with GsSir2, purified (Ni-NTA, Superdex 200 SEC)
